Laboratory results as given in a protein production outcome set (Wang et al. 2014).

Assay: label from the status in PepcDB records
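Further: failed if final PepcDB status was selected cloned or expressed and not failed if soluble or beyond.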

**Q.** For “MAEKRTVRPFAGTERRAKGWIQEAALRMLNNNLHPDVAERPDELIVYGGIGKAARNWECYEAIVDTLLRLENDETLLIQSGKPVAVFRTHPDAPRVLIANSNLVPAWATWDHFHELDKKGLIMYGQMTAGSWIYIGSQGIVQGTYETFAEVARQHFGGTLAGTITLTAGLGGMGGAQPLAVTMNGGVCLAIEVDPARIQRRIDTNYLDTMTDSLDAALEMAKQAKEEKKALSIGLVGNAAEVLPRLVETGFVPDVLTDQTSAHDPLNGYIPAGLTLDEAAELRARDPKQYIARAKQSIAAHVRAMLAMQKQGAVTFDYGNNIRQVAKDEGVDDAFSFPGFVPAYIRPLFCEGKGPFRWVALSGDPEDIYKTDEVILREFSDNERLCHWIRMAQKRIKFQGLPARICWLGYGERAKFGKIINDMVAKGELKAPIVIGRDHLDSGSVASPNRETEGMKDGSDAIADWPILNALLNAVGGASWVSVHHGGGVGMGYSIHAGMVIVADGTKEAEKRLERVLTTDPGLGVIRHADAGYELAIRTAKEKGIDMPMLK”, which protein production is on record?
**A.** The protein production was “not failed”.

**Q.** With “MAEKVKSGQVFNLLCIFSIFFFLFVLSVNVSADVDSERAVPSEDKTTTVWLTKIKRSGKNYWAKVRETLDRGQSHFFPPNTYFTGKNDAPMGAGENMKEAATRSFEHSKATVEEAARSAAEVVSDTAEAVKEKVKRSVSGGVTQPSEGSEEL” as the sequence, how does the protein production read?
**A.** Its protein production is “failed”.

**Q.** With “MAELYVKPGNKERGWNDPPQFSYGLQTQTGGPKRTPLTKRVAAPQDGSPRAPETSGPPPVDHPPPSSKASRPPPMGSCPATGVEPPSSPVIESETLIEDVLRPLEQALEDCHGHTKKQVCDDISRRLALLREQWAGGKLSIPVKKRMALLVQELLHHQWDAADDIHRSLMVDHVTEVSQWMVGVKRLIAEKKSLSSEETKEEKFTVEPENQTIPGFQQPS” as the sequence, how does the protein production read?
**A.** Its protein production is “not failed”.

**Q.** Which protein production does the source give for “MAEPLQPDPGAAEDAAAQAVETPGWKAPEDAGPQPGSYEIRHYGPAKWVSTSVESMDWDSAIQTGFTKLNSYIQGKNEKEMKIKMTAPVTSYVEPGSGPFSESTITISLYIPSEQQFDPPRPLESDVFIEDRAEMTVFVRSFDGFSSAQKNQEQLLTLASILREDGKVFDEKVYYTAGYNSPVKLLNRNNEVWLIQKNEPTKENE” here?
**A.** The protein production was “failed”.

**Q.** For “MAERAMSVTPYWELTFDADGDVDGRERDRLLAQVAQRKVHDLVVFAHGWNNERSGATRLYSRFFQPVPALAPRARLGYVGVVWPSMIFPDEPIPDFPASVPAEVTAVARPALAKGARQALVEVFPDRATLVEQIARLLERHPDEEASLETFGQLVRLLVEARPQDPQDACAADTLATGGPVSGPEMLSGDTALVCRDFARALDRVASLHGTSAASGAVDFSFTPAGLWDGAHELLRQATYYAMKRRAGTVGERGLGRVLGRLAQAAPDVRVHLVGHSFGGRLVSFALRGLPAGVRTVKSVTLLQGAFSHYAFAARLPHDTHASGALHGLQSRIDGPLVCCYSHFDSALGTMYPLASRMAGDARSAAGELGADFDIGRTLGPRWGAMGHDGVQAVDGTRAFTLAEALRAELPASGCVNVDAAAVVKRGGPPTGAHSDIVHRELAQVVLAAGRIR”, which protein production is on record?
**A.** The protein production was “failed”.

**Q.** With “MAERTLVKPCTSVPPTMVRVPNVTRADALAAARNPLALIAERWTPAPRTVRRAALAALVMAVVIVVTGGAVRLTGSGLGCPTWPKCTDDSLTTTSAMGFHGVIEFGNRMLTYVLCAAVGWAIIAARSQKPWRRSLTRLGWAQFWIVMSNAILGGIVVLVGLNPYTVAAHFLLSTALIAVATLMWQRACEGDGAPRPLVGKAVQQLVWFLVTASVLLIAVGTVVTGAGPHAGDSSDVERMPLDWETVSKLHAVLAWIVVTLTFALWFVLKAVDAPKGPLHRTRDLFLILLAQGVIGYVQYFTDLPEALVALHMLGSCLVWIGVLRVLLSLRERPEAVADLPGPSTESALTRA” as the sequence, how does the protein production read?
**A.** The protein production was “failed”.

**Q.** With “MAESVRLPTPYNRKTEIRPMFTEIILFLLDTVFTLFGMALLLRLWMQLSRLPSRNPVSQGVFQVTDWIVRPLRRIIPGLGGIDWATVFAAYLTAVAFLLCRALVLGADPLGFLPVILALGVLSMLKWGISMVMWVTLLMAVLSWVNPNSPLAAPIWHLTAPLLRPIQRVVPRLGGFDISPLILFVIAQILLMVIANVSRGVA” as the sequence, how does the protein production read?
**A.** Its protein production is “failed”.

**Q.** With “MAETLITKPPLSLSFTSLSSMLPSLSLSTANRHLSVTDTIPLPNSNSNATPPLRIAIIGFGNYGQFLAETLISQGHILFAHSRSDHSSAARRLGVSYFTDLHDLCERHPDVVLLCTSILSIENILKTLPFQRLRRNTLFVDVLSVKEFAKTLLLQYLPEDFDILCTHPMFGPQSVSSNHGWRGLRFVYDKVRIGEERLRVSRCESFLEIFVREGCEMVEMSVTDHDKFAAESQFITHTLGRLLGMLKLISTPINTKGYEALLDLAENICGDSFDLYYGLFVYNNNSLEVLERIDLAFEALRKELFSRLHGVVRKQSFEGEAKKVHVFPNCGENDASLDMMRSEDVVVKYEYNSQVSGSVNDGSRLKIGIVGFGNFGQFLGKTMVKQGHTVLAYSRSDYTDEAAKLGVSYFSDLDDLFEEHPEVIILCTSILSTEKVLESLPFQRLKRSTLFVDVLSVKEFPRNLFLQTLPQDFDILCTHPMFGPESGKNGWNNLAFVFDKVRIGMDDRRKSRCNSFLDIFAREGCRMVEMSCAEHDWHAAGSQFITHTVGRLLEKLSLESTPIDTKGYETLLKLVENTAGDSFDLYYGLFLYNPNAMEQLERFHVAFESLKTQLFGRLHSQHSHELAKSSSPKTTKLLTS” as the sequence, how does the protein production read?
**A.** The protein production was “failed”.

**Q.** Which protein production does the source give for “MAETVGMILCGGFGKRLRPLTEKIPKPLIEIKEGYTILDKQLFDLKNAGINTVYLLTGFLGERIEERYGDNYKGLRIEYVREEKPLGTLNAIRLGMEAIDGEKQCIIRNGDVVADLNIKKMIHLGEMSDYPLTMFITRMQSPYGIVETSGDKIINFREKPLLDYYINAGVYFSKGNLDFGDFESGDIEKTLFPLMAKENKLGYYREDGLFWMAIDTSKELEEIRKEYRNREDKPWGYEKILINTEKYLTKELFIREGYRTSFHYHEEKDETMYIISGSGYIEFDNRKEYFSKNDTIRIEPGERHSIVAMENTVLHEVSTPHLNDTVRVQDYYTRLEHHHHHH” here?
**A.** The protein production was “not failed”.

**Q.** For “MAEVERPQLYLVTPPEIDLEIFPDRLAAVLDSTEVACLRLALAGKDEDRIARTGDALREVAHARDVALVIENHVLMVERLGLDGVHLTDGARLVRKLRKDLGPDAILGAFCGRTRHEGINAAEAGADYVAFGPVGTTALGDGSLAEAELFGWWSEMIEVPVVAEGALTPEKVAELAPLTDFFAVGEEIWREEDAAAALRRLLAPLGLEHHHHHH”, which protein production is on record?
**A.** The protein production was “not failed”.

**Q.** With “MAFLKVVPLEKALEVVQSFKISPGIEEVPIEKGLGRIAAEDIYSPIDVPPFDRATVDGYAVRAEDTFMASEASPVRLKVIGSVHAGEEPKFKLGKGEAAYISTGAMLPGNADAVIQFEDVERVNGEILIYKPAYPGLGVMKKGIDIEKGRLLVKKGERLGFKQTALLSAVGINKVKVFRKPKVAVISTGNEIVPPGNELKPGQIYDINGRALCDAINELGGEGIFMGVARDDKESLKALIEKAVNVGDVVVISGGASGGTKDLTASVIEELGEVKVHGIAIQPGKPTIIGVIKGKPVFGLPGYPTSCLTNFTLLVVPLLLRALGREGKIGKKVARLKHKVFSVKGRRQFLPVKLEGDLAVPILKGSGAVTSFIDADGFVEIPETVESLDEGEEVEVTLFKGW” as the sequence, how does the protein production read?
**A.** The protein production was “not failed”.

**Q.** With “MAFPQRKRTPSFSSSVLDSVYRSIDESDGLQSDLKGSINENVSSSSSSPSPNKKDDKLTTLRRAIMDEEHWLYARSSTTTTNSSDSSSFSSSEAESYRTKRRLRKLAEQGKRSGDERQRTKRTVMDNDSRLFSKSDDDKKPKAVKIIEELKRSKQPVSPGARLTSFLNSIFQSNAKKVKLCSVGKTTDVKSSSSKSCFSRTRNKTDNNNNNCKKLERSIRFYPVRVTIDGDCRDYAQKHITRVRKPIPEFTAKKSVKEEIKTNDHHTEFTCITRNIGLKDFVRSNKYEGKEEEEDAWSHSSSDLFELDSYRIGMGRYLKELPVYETTDFKTNQAIARSLLL” as the sequence, how does the protein production read?
**A.** The protein production was “failed”.

**Q.** With “MAFRITSQLRPVGNQFGGSRRFATTVADGAKQTYNKFSIMGEFAPVAIIGGFVGLAVLMAGHSLKQQLMHAPAISTRKNRRAAVAEVDDPENCVSSADKFINKSWLRKVGQIQDKSKAILSDPTRPNPFTTPRNAETLNSVGVAPKGI” as the sequence, how does the protein production read?
**A.** Its protein production is “failed”.

**Q.** With “MAFRMSEQPRTIKIYNLLAGTNEFIGEGDAYIPPHTGLPANSTDIAPPDIPAGFVAVFNSDESSWHLVEDHRGKTVYDVASGDALFISELGPLPENVTWLSPEGEFQKWNGTAWVKDTEAEKLFRIREAEETKNNLMQVASEHIAPLQDAADLEIATEEEISLLEAWKKYRVLLNRVDTSTAQDIEWPALP” as the sequence, how does the protein production read?
**A.** The protein production was “not failed”.

**Q.** For “MAFSAPEPELSVVVPTLNEAETVATLLAALAAQRDVALELLLCDGGSTDGTAALVRGRAGDLPFPVTVTETPPGRGRQMNAGAAAARGATFLFLHADSIIADPLALRRGLDHLAAARRSDKRAAGHFRLRFAGDSPSPLAYRFYERKARLHRPGCTHGDQGLLIPREFFDQVGPFDEGLPILEDVRLAERIAAMGTWVLLPAEIITSARRFETEGLRERQTLNAILMNFAAIGWQQGVEELVAGYRSQDRSGRLRLGPHLARIAGLTAALPRQERLRLWYLTGGYVRGNAWQIPLFLDVRNAWRRGGDDGATPLLSLHDRWFDLLTDNPAGRAAAALMTFLWFRLTLRREMKDWPGILRTPLEHHHHHH”, which protein production is on record?
**A.** The protein production was “failed”.

**Q.** With “MAFSPLCGVNCTSRPSASTINTFLTKAQHDVTLTDTDTRIFIKNIKTGVTMEQFRNSLQEFGAMQVYFYEPGSNNDGWAWVGFENKEAALKVIEESEKMQEEMNEENLNEMQNEDNEEQGSNSFYAEDEDKKDEEEEEEEEEY” as the sequence, how does the protein production read?
**A.** Its protein production is “failed”.

**Q.** With “MAFWAGGSPSVVDYFPSEDFYRCGYCKNESGSRSNGMWAHSMTVQDYQDLIDRGWRRSGKYVYKPVMNQTCCPQYTIRCRPLQFQPSKSHKKVLKKMLKFLAKGEVPKGSCEDEPMDSTMDDAVAGDFALINKLDIQCDLKTLSDDIKESLESEGKNSKKEEPQELLQSQDFVGEKLGSGEPSHSVKVHTVPKPGKGADLSKPPCRKAKEIRKERKRLKLMQQNPAGELEGFQAQGHPPSLFPPKAKSNQPKSLEDLIFESLPENASHKLEVRLVPVSFEDPEFKSSFSQSFSLYVKYQVAIHQDPPDECGKTEFTRFLCSSPLEAETPPNGPDCGYGSFHQQYWLDGKIIAVGVIDILPNCVSSVYLYYDPDYSFLSLGVYSALREIAFTRQLHEKTSQLSYYYMGFYIHSCPKMKYKGQYRPSDLLCPETYVWVPIEQCLPSLENSKYCRFNQDPEAVDEDRSTEPDRLQVFHKRAIMPYGVYKKQQKDPSEEAAVLQYASLVGQKCSERMLLFRN” as the sequence, how does the protein production read?
**A.** The protein production was “failed”.

**Q.** For “MAGAGGGNDIQWCFSQVKGAVDDDVAEADIISTVEFNHSGELLATGDKGGRVVIFQQEQENKIQSHSRGEYNVYSTFQSHEPEFDYLKSLEIEEKINKIRWLPQKNAAQFLLSTNDKTIKLWKISERDKRPEGYNLKEEDGRYRDPTTVTTLRVPVFRPMDLMVEASPRRIFANAHTYHINSISINSDYETYLSADDLRINLWHLEITDRSFNIVDIKPANMEELTEVITAAEFHPNSCNTFVYSSSKGTIRLCDMRASALCDRHSKLFEEPEDPSNRSFFSEIISSISDVKFSHSGRYMMTRDYLSVKIWDLNMENRPVETYQVHEYLRSKLCSLYENDCIFDKFECCWNGSDSVVMTGSYNNFFRMFDRNTKRDITLEASRENNKPRTVLKPRKVCASGKRKKDEISVDSLDFNKKILHTAWHPKENIIAVATTNNLYIFQDKVN”, which protein production is on record?
**A.** Its protein production is “failed”.

**Q.** Which protein production does the source give for “MAGAITLACTIRFEANAEHVYLSSGTKQTVYHYPFPMSTIHITLNGERKEVPAGSTVSELLVIADADRQPVAVVVNEHIVRPDQRDSYILQERDQVEILVFAGGGLEHHHHHH” here?
**A.** Its protein production is “not failed”.

**Q.** With “MAGASHDIHPPKVEYFDLRDHTNTDPKGFVRHVDHYRVEPWGLYMARTSDHPQFHYLESWLLPDLGLRASIFHYHPYHQRDQDHYVDIGTFTRGDDVWKSEDHYLDLVVRTGRDTELLDVDELMEAHTTGLLDTATAEQAILTATTAIDGIAAHGHDLGRWLASIGMPIDWR” as the sequence, how does the protein production read?
**A.** The protein production was “not failed”.
